Laboratory results as given in the supplement of paper PMC10724198.
± gives the standard deviation of the averaged measurements.

What was measured:
Experiment in all cases: protein stability index of tFT-peptide fusion (C-terminal peptide) (PSI (0-1 scale)); higher = more stable (slower turnover)
Saccharomyces cerevisiae [1] = conditions: temperature: 30 C
Protocol: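 MPS profiling in S. cerevisiae of the yeast C-terminome library: the last 12 aa of each annotated ORF are fused to the C-terminus of a sfGFP-mCherry timer, after a GGGS linker. Cells are FACS-sorted into 8 mCherry/sfGFP bins and deep-sequenced. PSI runs from 0 (unstable) to 1 (stable); wild type and das1Δ backgrounds, two technical replicates each.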

Saccharomyces cerevisiae [2] = test system: Saccharomyces cerevisiae
Protocol: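 MPS profiling in S. cerevisiae of the tFT-X12 degron library: putative degron peptides plus stable controls, 12 aa, fused to the C-terminus of a sfGFP-mCherry timer. Cells are FACS-sorted into 8 mCherry/sfGFP bins and deep-sequenced. PSI runs from 0 (unstable) to 1 (stable). Backgrounds are wild type, das1Δ and doa10Δ at 30 °C, and wild type, das1Δ, cdc34-1 and cdc53-1 at 37 °C; 2-3 technical replicates each.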

Saccharomyces cerevisiae [3] = conditions: genetic background: wild type; temperature: 30 C
[4] = genetic background: das1 deletion
[5] = genetic background: cdc34-1, temperature: 37 C
[6] = genetic background: cdc53-1, temperature: 37 C
[7] = genetic background: das1 deletion, temperature: 30 C
[8] = genetic background: das1 deletion, temperature: 37 C
[9] = genetic background: doa10 deletion, temperature: 30 C
[10] = genetic background: wild type, temperature: 30 C
[11] = genetic background: wild type, temperature: 37 C

| Sequence | protein stability index (Saccharomyces cerevisiae [1]; [4]) | protein stability index (Saccharomyces cerevisiae [1]; genetic background: wild type) | further results |
| --- | --- | --- | --- |
| CPLCRSEIPFRR [RKR1 C-terminal 12 aa] | 0.75 ± 0.028 | 0.724 ± 0.039 |  |
| KRLTSRLNKKHK [SPN1 C-terminal 12 aa] | 0.6937 ± 0.0067 | 0.69 ± 0.046 |  |
| EQGGEGVQCASQ [YDJ1 C-terminal 12 aa] | 0.686 ± 0.014 | 0.69 ± 0.045 |  |
| KVIFKDRPLPIM [CTF8 C-terminal 12 aa] | 0.643 ± 0.032 | 0.611 ± 0.012 |  |
| EKANDIGFHKYR [RPS29B C-terminal 12 aa] | 0.6797 ± 0.0058 | 0.648 ± 0.027 |  |
| KHVSGKILGFVY [RPS22A C-terminal 12 aa] | 0.631 ± 0.045 | 0.63 ± 0.02 |  |
| ARLVSNEPILLD [CWC23 C-terminal 12 aa] | 0.725 ± 0.026 | 0.704 ± 0.053 |  |
| IAQNVSRSSQQV [YMD8 C-terminal 12 aa] | 0.6875 ± 0.00089 | 0.731 ± 0.016 |  |
| TLFDLIEKKVTA [TAL1 C-terminal 12 aa] | 0.67 ± 0.0085 | 0.652 ± 0.028 |  |
| DAKFMMQASCSS [FMP40 C-terminal 12 aa] | 0.6897 ± 0.0051 | 0.682 ± 0.035 |  |
| DLRCLKYKYKNA [YGR016W C-terminal 12 aa] | 0.695 ± 0.011 | 0.348 ± 0.028 |  |
| ALGRKTSNGGRI [MKS1 C-terminal 12 aa] | 0.7161 ± 0.004 | 0.724 ± 0.049 |  |
| MFGKLGRYLYSH [NSG2 C-terminal 12 aa] | 0.75552 ± 0.00052 | 0.211 ± 0.04 |  |
| NDAQKRAIDENF [SIS1 C-terminal 12 aa] | 0.687 ± 0.016 | 0.683 ± 0.0076 |  |
| EMKHSLFRNPFH [PIG2 C-terminal 12 aa] | 0.705 ± 0.014 | 0.678 ± 0.015 |  |
| AARPCLEGSVAP [YOR050C C-terminal 12 aa] | 0.686 ± 0.01 | 0.6795 ± 0.0067 |  |
| VTIFTWSSLLFV [TED1 C-terminal 12 aa] | 0.438 ± 0.0058 | 0.454 ± 0.0084 |  |
| GSSGRLTASPVY [PEX2 C-terminal 12 aa] | 0.696 ± 0.023 | 0.684 ± 0.022 |  |
| KPEFVDIINSRN [TPI1 C-terminal 12 aa] | 0.7145 ± 0.0052 | 0.691 ± 0.026 |  |

| Sequence | protein stability index (Saccharomyces cerevisiae [1]; [4]) | protein stability index (Saccharomyces cerevisiae [1]; genetic background: wild type) | further results |
| --- | --- | --- | --- |
| NLDNLFMASSLI [AIM6 C-terminal 12 aa] | 0.7128 ± 0.0018 | 0.658 ± 0.033 |  |
| LAFRAHTMPNAP [ATO3 C-terminal 12 aa] | 0.699 ± 0.0097 | 0.694 ± 0.033 |  |
| AIFLFLVGLFMK [UBC6 C-terminal 12 aa] | 0.289 ± 0.011 | 0.297 ± 0.017 |  |
| WAIESVDENWRF [TOP1 C-terminal 12 aa] | 0.746 ± 0.032 | 0.773 ± 0.04 |  |
| RKYPNQCGTISN [EXG1 C-terminal 12 aa] | 0.712 ± 0.011 | 0.674 ± 0.03 |  |
| TKWHDKFGKLKN [SHE2 C-terminal 12 aa] | 0.693 ± 0.024 | 0.6795 ± 0.0042 |  |
| VVIIVPIVVHFS [SNC2 C-terminal 12 aa] | 0.351 ± 0.012 | 0.425 ± 0.046 |  |
| KDEPVKAHNKLK [SAS5 C-terminal 12 aa] | 0.693 ± 0.011 | 0.654 ± 0.023 |  |
| NEKRNEPKPSTN [YTA12 C-terminal 12 aa] | 0.6938 ± 0.0025 | 0.656 ± 0.017 |  |
| LVYENVRVPRYL [IFM1 C-terminal 12 aa] | 0.697 ± 0.015 | 0.6639 ± 0.0064 |  |
| NEGSEEEPEIDQ [BDP1 C-terminal 12 aa] | 0.6878 ± 0.0019 | 0.702 ± 0.037 |  |
| ITSKRKAELLLK [DIS3 C-terminal 12 aa] | 0.723 ± 0.062 | 0.7544 ± 0.007 |  |
| AAANILFSDHAD [RAD23 C-terminal 12 aa] | 0.739 ± 0.032 | 0.733 ± 0.032 |  |
| IHYLLHIERERK [YOR385W C-terminal 12 aa] | 0.683 ± 0.037 | 0.681 ± 0.014 |  |
| FFTIEKYSVRRS [YOL013W-A C-terminal 12 aa] | 0.7332 ± 0.0047 | 0.681 ± 0.01 |  |
| STVLINVCKPTY [BAR1 C-terminal 12 aa] | 0.681 ± 0.013 | 0.667 ± 0.048 |  |
| VRKVAQWLQQLT [FSH2 C-terminal 12 aa] | 0.6838 ± 0.0012 | 0.5807 ± 0.0037 |  |
| RAVTKYSSSTQA [HTB1 C-terminal 12 aa] | 0.7067 ± 0.0046 | 0.695 ± 0.034 |  |
| ISFDLCGKQNFQ [MTC7 C-terminal 12 aa] | 0.705 ± 0.056 | 0.719 ± 0.044 |  |

| Sequence | protein stability index (Saccharomyces cerevisiae [1]; [4]) | protein stability index (Saccharomyces cerevisiae [1]; genetic background: wild type) | further results |
| --- | --- | --- | --- |
| PPPQESTEKEEK [MRP13 C-terminal 12 aa] | 0.709 ± 0.031 | 0.668 ± 0.0098 |  |
| SSVVSIPLREIL [YNR048W C-terminal 12 aa] | 0.712 ± 0.016 | 0.711 ± 0.07 |  |
| MAEKQIASEFNY [DBP7 C-terminal 12 aa] | 0.721 ± 0.012 | 0.662 ± 0.0067 |  |
| VMQVQCLFFFIL [YJL156W-A C-terminal 12 aa] | 0.556 ± 0.019 | 0.284 ± 0.0037 |  |
| KDETPEDNLEDK [VBA3 C-terminal 12 aa] | 0.6896 ± 0.00088 | 0.653 ± 0.017 |  |
| FIAHLILTDALK [ULP1 C-terminal 12 aa] | 0.64 ± 0.025 | 0.691 ± 0.039 |  |
| SQFVNDPFWANI [HIS2 C-terminal 12 aa] | 0.757 ± 0.031 | 0.756 ± 0.04 |  |
| FHHTSKTFAFAD [YGR219W C-terminal 12 aa] | 0.696 ± 0.022 | 0.674 ± 0.0088 |  |
| YLKLRGANFVLK [IES6 C-terminal 12 aa] | 0.695 ± 0.013 | 0.684 ± 0.011 |  |
| VSIKKLGRKLEN [FYV6 C-terminal 12 aa] | 0.727 ± 0.023 | 0.6469 ± 0.0013 |  |
| HEYVTINGDYRS [ARG7 C-terminal 12 aa] | 0.679 ± 0.017 | 0.702 ± 0.032 |  |
| VRFLLSLCCALL |  |  | protein stability index (Saccharomyces cerevisiae [2]; [5]): 0.588 ± 0.03; protein stability index (Saccharomyces cerevisiae [2]; [6]): 0.671 ± 0.018; protein stability index (Saccharomyces cerevisiae [2]; [7]): 0.548 ± 0.033; protein stability index (Saccharomyces cerevisiae [2]; [8]): 0.624 ± 0.042; protein stability index (Saccharomyces cerevisiae [2]; [9]): 0.5436 ± 0.0034; protein stability index (Saccharomyces cerevisiae [2]; [10]): 0.518 ± 0.021; protein stability index (Saccharomyces cerevisiae [2]; [11]): 0.596 ± 0.032; protein stability index (Saccharomyces cerevisiae [3]): 0.4914 ± 0.0025 |
| FHLFIRRSAVIF |  |  | protein stability index (Saccharomyces cerevisiae [2]; [5]): 0.493 ± 0.023; protein stability index (Saccharomyces cerevisiae [2]; [6]): 0.576 ± 0.0062; protein stability index (Saccharomyces cerevisiae [2]; [7]): 0.455 ± 0.017; protein stability index (Saccharomyces cerevisiae [2]; [8]): 0.555 ± 0.023; protein stability index (Saccharomyces cerevisiae [2]; [9]): 0.3488 ± 0.0019; protein stability index (Saccharomyces cerevisiae [2]; [10]): 0.351 ± 0.033; protein stability index (Saccharomyces cerevisiae [2]; [11]): 0.458 ± 0.0063; protein stability index (Saccharomyces cerevisiae [3]): 0.439 ± 0.025 |
| GFVSLFRLFIRL |  |  | protein stability index (Saccharomyces cerevisiae [2]; [5]): 0.241 ± 0.073; protein stability index (Saccharomyces cerevisiae [2]; [6]): 0.218 ± 0.02; protein stability index (Saccharomyces cerevisiae [2]; [7]): 0.352 ± 0.032; protein stability index (Saccharomyces cerevisiae [2]; [8]): 0.4652 ± 0.0042; protein stability index (Saccharomyces cerevisiae [2]; [9]): 0.405 ± 0.024; protein stability index (Saccharomyces cerevisiae [2]; [10]): 0.25 ± 0.013; protein stability index (Saccharomyces cerevisiae [2]; [11]): 0.3595 ± 0.0028; protein stability index (Saccharomyces cerevisiae [3]): 0.36 ± 0.066 |
| SISVQCSMLRVL |  |  | protein stability index (Saccharomyces cerevisiae [2]; [5]): 0.456 ± 0.036; protein stability index (Saccharomyces cerevisiae [2]; [6]): 0.47 ± 0.0037; protein stability index (Saccharomyces cerevisiae [2]; [7]): 0.389 ± 0.048; protein stability index (Saccharomyces cerevisiae [2]; [8]): 0.482 ± 0.0086; protein stability index (Saccharomyces cerevisiae [2]; [9]): 0.303 ± 0.02; protein stability index (Saccharomyces cerevisiae [2]; [10]): 0.294 ± 0.018; protein stability index (Saccharomyces cerevisiae [2]; [11]): 0.387 ± 0.038; protein stability index (Saccharomyces cerevisiae [3]): 0.331 ± 0.0089 |
| CFVRCFVSIRLF |  |  | protein stability index (Saccharomyces cerevisiae [2]; [5]): 0.109 ± 0.041; protein stability index (Saccharomyces cerevisiae [2]; [6]): 0.167 ± 0.0043; protein stability index (Saccharomyces cerevisiae [2]; [7]): 0.163 ± 0.019; protein stability index (Saccharomyces cerevisiae [2]; [8]): 0.3093 ± 0.0021; protein stability index (Saccharomyces cerevisiae [2]; [9]): 0.0737 ± 0.012; protein stability index (Saccharomyces cerevisiae [2]; [10]): 0.0716 ± 0.026; protein stability index (Saccharomyces cerevisiae [2]; [11]): 0.146 ± 0.015; protein stability index (Saccharomyces cerevisiae [3]): 0.133 ± 0.034 |
| LRNYKCLRLLIC |  |  | protein stability index (Saccharomyces cerevisiae [2]; [5]): 0.293 ± 0.009; protein stability index (Saccharomyces cerevisiae [2]; [6]): 0.476 ± 0.0082; protein stability index (Saccharomyces cerevisiae [2]; [7]): 0.394 ± 0.028; protein stability index (Saccharomyces cerevisiae [2]; [8]): 0.545 ± 0.022; protein stability index (Saccharomyces cerevisiae [2]; [9]): 0.0736 ± 0.0054; protein stability index (Saccharomyces cerevisiae [2]; [10]): 0.0688 ± 0.012; protein stability index (Saccharomyces cerevisiae [2]; [11]): 0.0753 ± 0.012; protein stability index (Saccharomyces cerevisiae [3]): 0.0682 ± 0.096 |
| FSFSFWALLWFP |  |  | protein stability index (Saccharomyces cerevisiae [2]; [5]): 0.495 ± 0.029; protein stability index (Saccharomyces cerevisiae [2]; [6]): 0.54 ± 0.017; protein stability index (Saccharomyces cerevisiae [2]; [7]): 0.438 ± 0.022; protein stability index (Saccharomyces cerevisiae [2]; [8]): 0.531 ± 0.0093; protein stability index (Saccharomyces cerevisiae [2]; [9]): 0.48 ± 0.031; protein stability index (Saccharomyces cerevisiae [2]; [10]): 0.429 ± 0.02; protein stability index (Saccharomyces cerevisiae [2]; [11]): 0.537 ± 0.02; protein stability index (Saccharomyces cerevisiae [3]): 0.466 ± 0.0093 |
